For assay [1], the target named is T1, cyno GPRC5D (cyno, UniProt Q9NZD1 1-343 (human entry)).
T1 construct: on transfected HEK293F or Daudi cells; also called cynomolgus monkey GPRC5D
T1 chain: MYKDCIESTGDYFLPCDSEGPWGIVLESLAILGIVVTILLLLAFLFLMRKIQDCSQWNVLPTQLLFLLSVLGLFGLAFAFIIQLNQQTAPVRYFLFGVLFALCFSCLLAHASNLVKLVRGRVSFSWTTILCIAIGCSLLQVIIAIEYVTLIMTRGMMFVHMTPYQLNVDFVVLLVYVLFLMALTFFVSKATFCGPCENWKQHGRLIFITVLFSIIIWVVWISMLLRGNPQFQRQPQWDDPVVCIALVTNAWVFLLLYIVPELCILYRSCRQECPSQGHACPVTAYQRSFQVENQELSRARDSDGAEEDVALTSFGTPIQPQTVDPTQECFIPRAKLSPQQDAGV
The experiment in a line: FACS, cyno GPRC5D HEK293F cells.

For assay [2], the target named is T2, human GPRC5D (human, UniProt Q9NZD1 1-345).
T2 construct: on transfected HEK293/RBL cells or endogenous on myeloma cells (H929, MM1R, OPM2, LP1, JIM3, patient plasma cells); also called G protein-coupled receptor class C group 5 member D; hGPRC5D
Kind of assay: FACS, human GPRC5D HEK293F cells.

Assay [3] has as its target T1, cyno GPRC5D. Kind of assay: FACS, cyno GPRC5D cells, 1 ug/ml. How it is done:
Whole cell phage panning was completed using the human GPRC5D cells as antigen, as described above. […] These mAbs were initially evaluated for binding to cyno GPRC5D using FACS. […] Briefly, FACS screening was performed by normalizing protein concentration to 1 ug/ml and 100 ul of protein was mixed with 200,000 cells per well. The mAb was allowed to incubate with cells for 1 hour at 4° C. The cells were then washed three times with PBS and 0.2% FBS. […] The cells and secondary antibody were incubated for 1 hour at 4° C. The cells were then washed three times with PBS and 0.2% FBS. The cells were washed again using PBS and 0.2% FBS and then analyzed on FACSarry.

The target of assay [4] is T2, human GPRC5D. Kind of assay: FACS, human GPRC5D cells. For orientation: A flow cytometer gives signals particle by particle.
Assay [5] addresses T1, cyno GPRC5D. The experiment in a line: cell-based or functional assay.
The target in assay [6] is T2, human GPRC5D. Kind of assay: FACS binding to plasma cells in MM patient MM303BM bone marrow MNCs.
The target of assay [7] is T2, human GPRC5D. The experiment in a line: cell-based or functional assay.
Assay [8] deals with T1, cyno GPRC5D. Kind of assay: cell-based or functional assay.
The next assay concerns the target T3, murine GPRC5D (murine, UniProt Q9JIL6 1-344).
T3 construct: also called mouse GPRC5D
T3 sequence: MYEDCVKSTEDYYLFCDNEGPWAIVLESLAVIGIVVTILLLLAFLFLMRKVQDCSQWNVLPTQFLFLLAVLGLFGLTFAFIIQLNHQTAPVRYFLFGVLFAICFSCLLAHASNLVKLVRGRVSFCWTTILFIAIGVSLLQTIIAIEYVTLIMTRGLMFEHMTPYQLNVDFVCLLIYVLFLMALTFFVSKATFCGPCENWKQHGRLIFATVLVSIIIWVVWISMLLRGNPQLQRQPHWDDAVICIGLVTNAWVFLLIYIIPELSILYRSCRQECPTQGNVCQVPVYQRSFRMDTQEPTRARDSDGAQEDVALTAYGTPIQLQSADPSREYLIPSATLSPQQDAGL
The experiment in a line: FACS, murine GPRC5D.

Assay [9] concerns the target T2, human GPRC5D. Kind of assay: FACS binding to plasma cells in MM patient MM305BM bone marrow MNCs.

The results in this text go back to US20180037651A1 (Janssen / Centocor, published 2018).

T2 sequence (Q9NZD1 whole entry): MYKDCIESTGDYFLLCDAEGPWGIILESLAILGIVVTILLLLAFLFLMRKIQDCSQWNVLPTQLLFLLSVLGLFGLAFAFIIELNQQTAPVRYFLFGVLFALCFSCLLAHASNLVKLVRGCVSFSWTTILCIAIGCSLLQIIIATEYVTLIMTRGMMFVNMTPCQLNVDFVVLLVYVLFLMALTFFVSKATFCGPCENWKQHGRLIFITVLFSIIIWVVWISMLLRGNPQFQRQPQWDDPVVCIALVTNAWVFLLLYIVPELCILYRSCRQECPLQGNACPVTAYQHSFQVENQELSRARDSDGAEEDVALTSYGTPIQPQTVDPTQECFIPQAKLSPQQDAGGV

B1: GC5B243 (antibody, IgG1, V domains shown)
VH: EVQLLESGGGLVQPGGSLRLSCAASGFTFSDYGMHWVRQAPGKGLEWVSAIKYSGGSTYYADSVKGRFTISRDNSKNTLYLQMNSLRAEDTAVYYCAKRAESGPGLDYWGQGTLVTVSS
VL: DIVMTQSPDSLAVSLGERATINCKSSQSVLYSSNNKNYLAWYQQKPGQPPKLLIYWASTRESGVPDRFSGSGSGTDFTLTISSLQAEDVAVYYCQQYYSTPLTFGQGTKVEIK
notes: human IgG4PAA
As to B1, the MFI in the assay with cyno GPRC5D [1] was 67800 MFI; with human GPRC5D [2] it was 20500 MFI; with cyno GPRC5D [3], 117000 MFI.

B2: GC5B163 (antibody, V domains shown)
VH: EVQLVQSGAEVKKPGESLKISCKGSGYSFTSYWIGWVRQMPGKGLEWMGIIYPGDSDTRYSPSFQGQVTISADKSISTAYLQWSSLKASDTAMYYCARVYSFGGRHKALFDYWGQGTLVTVSS
VL: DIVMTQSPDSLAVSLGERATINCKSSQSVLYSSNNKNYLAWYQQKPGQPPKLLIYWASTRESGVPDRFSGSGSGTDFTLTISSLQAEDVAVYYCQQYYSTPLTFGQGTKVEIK
notes: GC5H36+PH9L2
For the molecule B2, the results for the MFI with cyno GPRC5D [1], with human GPRC5D [2] and with cyno GPRC5D [3] were 7600 MFI, 840 MFI and 22000 MFI, respectively.

B3: GC5B251 (antibody, IgG1, V domains shown)
VH: QVQLVQSGAEVKKPGSSVKVSCKASGGTFSSYGISWVRQAPGQGLEWMGGIIPIFGNINYAQKFQGRVTITADESTSTAYMELSSLRSEDTAVYYCARVSRRFKRFAYYFDYWGQGTLVTVSS
VL: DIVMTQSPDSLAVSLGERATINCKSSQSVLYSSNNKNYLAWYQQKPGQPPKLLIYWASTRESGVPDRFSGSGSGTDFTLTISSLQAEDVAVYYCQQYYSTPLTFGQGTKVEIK
notes: human IgG4PAA
As for B3, the MFI with cyno GPRC5D [1] worked out at 74500 MFI; with human GPRC5D [2], 11400 MFI; with cyno GPRC5D [3] it was 213000 MFI.

B4: GC5B590 (antibody, V domains shown)
VH: QVTLKESGPVLVKPTETLTLTCTVSGFSLTSYNVHWIRQPPGKALEWLAVIWAGGSTNYNSALKSRLTISKDTSKSQVVLTMTNMRAEDTATYYCARDGIRLRFAYWGQGTLVTVSS
VL: EIVMTQSPATLSVSPGERATLSCKASQNVATHVGWYQQKPGQAPRLLIYSASYRYSGIPARFSGSGSGTEFTLTISSLQSEDFAVYYCQQYNRYPYTFGQGTKLEIK
notes: GC5B540 PTM variant
For B4, the binding result in the assay with human GPRC5D [4] is “binds”.

B5: GC5B594 (antibody, V domains shown)
VH: QVTLKESGPVLVKPTETLTLTCTVSGFSLTSYNVHWIRQPPGKALEWLAVIWAGGSTNYNSALKSRLTISKDTSKSQVVLTMTNMRAEDTATYYCARDAIRLRFAYWGQGTLVTVSS
VL: EIVMTQSPATLSVSPGERATLSCKASQNVATHVGWYQQKPGQAPRLLIYSASYRYSGIPARFSGSGSGTEFTLTISSLQSEDFAVYYCQQYNRYPYTFGQGTKLEIK
notes: GC5B540 PTM variant
Consider B5, for which, in the assay with human GPRC5D [4], the binding result is on record as “binds”.

B6: GC5B592 (antibody, V domains shown)
VH: QVTLKESGPVLVKPTETLTLTCTVSGFSLTSYNVHWIRQPPGKALEWLAVIWAGGSTNYNSALMSRLTISKDTSKSQVVLTMTNMRAEDTATYYCARDAIRLRFAYWGQGTLVTVSS
VL: EIVMTQSPATLSVSPGERATLSCKASQNVATHVGWYQQKPGQAPRLLIYSASYRYSGIPARFSGSGSGTEFTLTISSLQSEDFAVYYCQQYNRYPYTFGQGTKLEIK
notes: GC5B540 PTM variant
For the molecule B6, the binding result with human GPRC5D [4] is on record as “binds”.

B7: GCDB35 (bispecific antibody, IgG4)
heavy 1: not shown
VL: EIVLTQSPATLSLSPGERATLSCRASQSVSSYLAWYQQKPGQAPRLLIYDASNRATGIPARFSGSGSGTDFTLTISSLEPEDFAVYYCQQRSNWPLTFGQGTKVEIK
heavy 2: EVQLVESGGGLVQPGGSLRLSCAASGFTFNTYAMNWVRQAPGKGLEWVARIRSKYNNYATYYAASVKGRFTISRDDSKNSLYLQMNSLKTEDTAVYYCARHGNFGNSYVSWFAYWGQGTLVTVSSASTKGPSVFPLAPCSRSTSESTAALGCLVKDYFPEPVTVSWNSGALTSGVHTFPAVLQSSGLYSLSSVVTVPSSSLGTKTYTCNVDHKPSNTKVDKRVESKYGPPCPPCPAPEAAGGPSVFLFPPKPKDTLMISRTPEVTCVVVDVSQEDPEVQFNWYVDGVEVHNAKTKPREEQFNSTYRVVSVLTVLHQDWLNGKEYKCKVSNKGLPSSIEKTISKAKGQPREPQVYTLPPSQEEMTKNQVSLTCLVKGFYPSDIAVEWESNGQPENNYKTTPPVLDSDGSFLLYSKLTVDKSRWQEGNVFSCSVMHEALHNHYTQKSLSLSLGK
light: QTVVTQEPSLTVSPGGTVTLTCRSSTGAVTTSNYANWVQQKPGQAPRGLIGGTNKRAPGTPARFSGSLLGGKAALTLSGVQPEDEAEYYCALWYSNLWVFGGGTKLTVLGQPKAAPSVTLFPPSSEELQANKATLVCLISDFYPGAVTVAWKADSSPVKAGVETTTPSKQSNNKYAASSYLSLTPEQWKSHRSYSCQVTHEGSTVEKTVAPTECS
With B7, the “T cell mediated target cell killing, Cyno GPRC5D EC50” value with cyno GPRC5D [5] was 4.65 nM.

B8: GC5B332 (antibody, IgG1, V domains shown)
VH: EVQLVQSGAEVKKPGESLKISCKGSGYSFTSYWIGWVRQMPGKGLEWMGIIYPGDSDTRYSPSFQGQVTISADKSISTAYLQWSSLKASDTAMYYCARIGFYGRSFRIFDYWGQGTLVTVSS
VL: EIVLTQSPATLSLSPGERATLSCRASQSVSSYLAWYQQKPGQAPRLLIYDASNRATGIPARFSGSGSGTDFTLTISSLEPEDFAVYYCQQRSNWPLTFGQGTKVEIK
notes: GC5H35+PH9L3 (L6); human IgG4PAA
Turning to B8, the MFI with cyno GPRC5D [1] worked out at 107000 MFI; in the assay with human GPRC5D [2], 13300 MFI; with cyno GPRC5D [3], 192000 MFI.

B9: GC5B252 (antibody, V domains shown)
VH: QVQLVQSGAEVKKPGSSVKVSCKASGGTFSSYGISWVRQAPGQGLEWMGGIIPIFGNINYAQKFQGRVTITADESTSTAYMELSSLRSEDTAVYYCARVSRRFKRFAYYFDYWGQGTLVTVSS
VL: EIVLTQSPATLSLSPGERATLSCRASQSVSSYLAWYQQKPGQAPRLLIYDASNRATGIPARFSGSGSGTDFTLTISSLEPEDFAVYYCQQRSNWPLTFGQGTKVEIK
notes: GC5H42+PH9L3
In the case of B9, the results for the MFI in the assay with cyno GPRC5D [1], with human GPRC5D [2] and in the assay with cyno GPRC5D [3] were 22000 MFI, 1500 MFI and 63300 MFI, respectively.

B10: GC5B164 (antibody, IgG1, V domains shown)
VH: EVQLVQSGAEVKKPGESLKISCKGSGYSFTSYWIGWVRQMPGKGLEWMGIIYPGDSDTRYSPSFQGQVTISADKSISTAYLQWSSLKASDTAMYYCARVYSFGGRHKALFDYWGQGTLVTVSS
VL: EIVLTQSPATLSLSPGERATLSCRASQSVSSYLAWYQQKPGQAPRLLIYDASNRATGIPARFSGSGSGTDFTLTISSLEPEDFAVYYCQQRSNWPLTFGQGTKVEIK
notes: GC5H36+PH9L3 (L6); human IgG4PAA
Consider B10, for which the MFI in the assay with cyno GPRC5D [1] came out at 78700 MFI; in the assay with human GPRC5D [2] it was 12700 MFI; in the assay with cyno GPRC5D [3], 122000 MFI.

B11: GC5B320 (antibody, IgG1, V domains shown)
VH: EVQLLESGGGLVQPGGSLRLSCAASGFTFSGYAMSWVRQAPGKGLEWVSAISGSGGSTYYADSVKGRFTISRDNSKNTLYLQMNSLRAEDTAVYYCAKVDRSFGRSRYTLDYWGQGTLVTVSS
VL: EIVLTQSPATLSLSPGERATLSCRASQSVSSYLAWYQQKPGQAPRLLIYDASNRATGIPARFSGSGSGTDFTLTISSLEPEDFAVYYCQQRSNWPLTFGQGTKVEIK
notes: GC5H58+PH9L3 (L6); human IgG4PAA
With B11, the results for the MFI in the assay with cyno GPRC5D [1], with human GPRC5D [2] and with cyno GPRC5D [3] were 63300 MFI, 22900 MFI and 49600 MFI, respectively.

B12: GCDB53 (bispecific antibody, IgG4, V domains shown)
VH 1: not shown
VL 1: not shown
VH 2: EVQLVESGGGLVQPGGSLRLSCAASGFTFNTYAMNWVRQAPGKGLEWVARIRSKYNNYATYYAASVKGRFTISRDDSKNSLYLQMNSLKTEDTAVYYCARHGNFGNSYVSWFAYWGQGTLVTVSS
VL 2: QTVVTQEPSLTVSPGGTVTLTCRSSTGAVTTSNYANWVQQKPGQAPRGLIGGTNKRAPGTPARFSGSLLGGKAALTLSGVQPEDEAEYYCALWYSNLWVFGGGTKLTVL
notes: IgG4-PAA by Fab arm exchange; CD3 arm also F405L, R409K; also called GC5B465 x CD3B219
What is called EC50 is the concentration that produces a half-maximal response. High values mean weaker potency, low ones greater potency. Take B12: the concentration for a half-maximal effect (EC50) in the assay with human GPRC5D [6] was determined as 3.98 nM; with human GPRC5D [9] it was 10.2 nM. In addition, the “T-cell redirection cytotoxicity EC50, human GPRC5D HEK cells” value in the assay with human GPRC5D [7] came to 0.08 nM. The “T-cell redirection cytotoxicity EC50, cyno GPRC5D HEK cells” value with cyno GPRC5D [8] was 0.36 nM. For the same molecule, the MFI with murine GPRC5D was determined as 2660 MFI.

B13: GCDB72 (bispecific antibody, IgG4, V domains shown)
VH 1: QVQLVQSGAEVKKPGASVKVSCKASGYSFTGYTMNWVRQAPGQGLEWMGLINPYNSDTNYAQKLQGRVTMTTDTSTSTAYMELRSLRSDDTAVYYCARVALRVALDYWGQGTLVTVSS
VL 1: DIQMTQSPSSLSASVGDRVTITCKASQNVATHVGWYQQKPGKAPKRLIYSASYRYSGVPSRFSGSGSGTEFTLTISNLQPEDFATYYCQQYNRYPYTFGQGTKLEIK
VH 2: EVQLVESGGGLVQPGGSLRLSCAASGFTFNTYAMNWVRQAPGKGLEWVARIRSKYNNYATYYAASVKGRFTISRDDSKNSLYLQMNSLKTEDTAVYYCARHGNFGNSYVSWFAYWGQGTLVTVSS
VL 2: QTVVTQEPSLTVSPGGTVTLTCRSSTGAVTTSNYANWVQQKPGQAPRGLIGGTNKRAPGTPARFSGSLLGGKAALTLSGVQPEDEAEYYCALWYSNLWVFGGGTKLTVL
notes: IgG4-PAA by Fab arm exchange; CD3 arm also F405L, R409K; also called GC5B596 x CD3B219
In the case of B13, the “T-cell redirection cytotoxicity EC50, cyno GPRC5D HEK cells” value with cyno GPRC5D [8] stood at 3.41 nM. This molecule came in with an MFI with murine GPRC5D of 481 MFI.
